Laboratory results published in PMC8439657.

Experiments:
[1] = target: mTORC1 (wild-type human mTOR, RAPTOR, mLST8), Strep tag removed (human) (UniProt P42345)
[2] = target: mTORC1 (wild-type human mTOR, RAPTOR, mLST8), Strep tag removed (human) (UniProt P42345); remark: listed apart in the source
[3] = target: mTOR^ΔN-mLST8 complex (human) (UniProt P42345)
[4] = target: mTORC1 (wild-type human mTOR, RAPTOR, mLST8), Strep tag removed (human) (UniProt P42345); remark: listed apart in the source
[5] = target: Twin-Strep-tagged activated mTORC1 mutant A1459P (human) (UniProt P42345); experiment: SPR; Biacore T200, CM5 chip; Twin-Strep-tagged mTORC1 captured on Strep-Tactin XT; DEPTOR PDZ (305-409) injected 120 s, 300 s dissociation, 1:2 dilution series from 20 µM; 50 mM HEPES pH 7.5, 100 mM NaCl, 1 mM TCEP; equilibrium responses fit to one-site specific binding with a linear non-specific component
[6] = target: Twin-Strep-tagged wild-type mTORC1 (human) (UniProt P42345); experiment: as above

IC50 of inhibition of mTORC1 kinase activity, phosphorylation of GST-S6K1 367-404 peptide (western blot, p-S6K1 Thr389) [1] [µM]	IC50 of inhibition of mTORC1 kinase activity, phosphorylation of wild-type 4EBP1 (western blot, p-4EBP1 Thr37/46) [1] [µM]	IC50 of inhibition of mTORC1 phosphorylation of the TOS-less 4EBP1 mutant, against wild-type 4EBP1 [2] [fold]	IC50 of inhibition of the kinase activity of monomeric mTOR^ΔN-mLST8 [3] [µM]	fold decrease of the IC50 of DEPTOR inhibition of 4EBP1 phosphorylation in the presence of RHEB-GTP, against mTORC1 alone [4] [fold]	Kd [5] [µM]	Kd [6] [µM]	Substance
51	14	2	0.4	400	–	–	DEPTOR (DEP-domain containing mTOR-interacting protein), full length, residues 1-409 (from UniProt Q8TB45 1-409) (natural protein)
–	–	–	–	–	0.6	7	DEPTOR short-linker PDZ, residues 305-409 (from UniProt Q8TB45 305-409) (domain or fragment)
